Key:
Enterobacter cloacae = assay: CFU reduction test; type: cell-based; settings: E. cloacae CCARM 0252
Description: (§1) In addition, that the LNT101 endolysin had the antibacterial ability in various gram negative bacterium was confirmed by a CFU reduction test, and the result was shown in Table 2 below.

Klebsiella aerogenes = assay: CFU reduction test; type: cell-based; settings: K. aerugenes CCARM 16006
Description: as §1

B1: LNT101: endolysin derived from bacteriophage PBPA90, amino acid sequence SEQ ID NO: 1 (259 aa), purified with 6× His tag (protein)
chain: MGTVLKRGDRGSAVEDLQMKLRVAGYAVSADGIFGGDTEKAVRDFQASKALVVDGKVGPATLAELAKSATVPAKWEAIPFPTANKSRSAAMPTLNAVGAMTGTDSRLLATFASIESAFDYTVKASTSSATGWFQFLDATWDDMIKAHGSKYGIPKDPTRALRKDPRANALMGAEFLKGNAAVLRPVINREPSDTDLYLAHFLGAGGAKKFLSADQKTLGEVLFPKPAKANPSIFSNKGVPRTLAEIYKLFEDKVSKHRA
modifications: 6xHis tag; synthetic_Endolysin LNT101
CFU reduction (Enterobacter cloacae): ◯ (‘◯’ means reduction of 0.5 log CFU or more through the CFU reduction assay) | CFU reduction (Klebsiella aerogenes): ◯ (‘◯’ means reduction of 0.5 log CFU or more through the CFU reduction assay)

— patent US11807881B2, “Polypeptide, fusion polypeptide, and antibiotic against gram-negative bacteria comprising same” (priority 2020, dated 2023)
